The text below walks through data of article PMC3830645.

In assay [1] the target is EGF/tEGFR: purified tail-truncated EGFR (aa 25–1022) with EGF, solubilized in detergent or reconstituted in nanodiscs.
The target is the same in assay [2]. This is another data set of the same source.

B1: unligated GST-Mig6 (aa 336–391) (domain or fragment)
chain: KSLPSYLNGVMPPTQSFAPDPKYVSSKALQRQNSEGSASKVPCILPIIENGKKVPG
With B1, the IC50 of inhibition of EGFR (tEGFR) kinase activity in assay [1] is greater than 3000 nM.

B2: His6-Mig6 segment 1+2 (aa 336–412) mutant Y394E (domain or fragment)
chain: KSLPSYLNGVMPPTQSFAPDPKYVSSKALQRQNSEGSASKVPCILPIIENGKKVSSTHEYLLPERPPYLDKYEKFFR
In assay [2], B2 returned an IC50 of inhibition of tEGFR kinase activity of 740 nM.
